Source: PMC8477192, “An ionic lock and a hydrophobic zipper mediate the coupling between an insect pheromone receptor BmOR3 and downstream effectors” (The Journal of Biological Chemistry, 2021)
Values belong to the molecule of their own block, whether it stands above or below them.

Assays:
Rluc-BmArr = experiment: intermolecular BRET; conditions: read off a plot
Rluc-BmOrco = experiment: intermolecular BRET; conditions: HEK293 cells; bombykal-induced; parent: est. 0.053; read off a plot
BmOR3–BmOrco = biological target: T1, BmOR3–BmOrco (Bombyx mori, UniProt Q5FBE0); experiment: BmOR3–BmOrco intermolecular BRET assay; assay type: cell-based; conditions: HEK293 cells; pretreatment 100 ng/ml
T1 sequence (Q5FBE0 1-439): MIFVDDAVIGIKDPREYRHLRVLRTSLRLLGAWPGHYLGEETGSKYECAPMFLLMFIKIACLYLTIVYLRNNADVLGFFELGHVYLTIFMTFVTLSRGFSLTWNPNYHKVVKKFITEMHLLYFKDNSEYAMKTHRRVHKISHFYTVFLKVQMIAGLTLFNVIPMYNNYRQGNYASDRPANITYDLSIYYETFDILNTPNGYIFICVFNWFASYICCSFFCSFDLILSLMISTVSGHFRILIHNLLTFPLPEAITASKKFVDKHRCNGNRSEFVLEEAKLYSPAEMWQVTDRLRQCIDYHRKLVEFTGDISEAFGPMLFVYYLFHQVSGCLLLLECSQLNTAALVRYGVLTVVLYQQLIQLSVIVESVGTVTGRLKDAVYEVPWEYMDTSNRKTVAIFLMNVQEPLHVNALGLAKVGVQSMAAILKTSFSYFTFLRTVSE
T1 sequence (Q7YT34 1-472 partner): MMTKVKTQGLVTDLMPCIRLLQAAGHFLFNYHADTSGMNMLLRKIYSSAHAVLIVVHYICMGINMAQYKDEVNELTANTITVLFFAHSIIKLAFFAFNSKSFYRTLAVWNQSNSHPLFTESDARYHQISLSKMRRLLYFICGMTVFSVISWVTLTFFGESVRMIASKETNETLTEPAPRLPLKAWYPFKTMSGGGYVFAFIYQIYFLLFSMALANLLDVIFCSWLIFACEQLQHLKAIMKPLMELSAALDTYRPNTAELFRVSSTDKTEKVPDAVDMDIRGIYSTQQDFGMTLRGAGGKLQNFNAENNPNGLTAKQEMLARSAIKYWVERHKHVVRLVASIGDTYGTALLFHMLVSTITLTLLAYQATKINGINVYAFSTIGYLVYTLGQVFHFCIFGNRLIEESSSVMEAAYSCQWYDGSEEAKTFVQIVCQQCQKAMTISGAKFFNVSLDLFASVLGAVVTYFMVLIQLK
Protocol: HEK293 cells were cotransfected with the N-terminal Rluc-tagged WT BmOR3 together with N-terminal YFP-fused BmOrco plasmids or their mutants. Twenty-four hours after transfection, cells were distributed into a 96-well microplate. After another 24 h, the cells were stimulated with different concentrations of bombykal for 5 min. BRET between RLuc and YFP was measured using a Mithras LB 940 multimode reader after the addition of the RLuc substrate coelenterazine h (5 μM). The BRET signal was calculated as the ratio of emission of YFP (530 nm) to RLuc (485 nm). For the saturation BRET between Rluc-BmOrco and YFP-BmOR3, HEK293 cells were transfected with a fixed amount of Rluc-BmOrco and increasing amounts of YFP-BmOR3. The BRET signal between RLuc and YFP was directly measured after the addition of the substrate coelenterazine h (5 μM).

BmOR3 [1] = biological target: T2, BmOR3 (Bombyx mori, UniProt Q5FBE0); experiment: Arrestin recruitment BRET assay; assay type: cell-based; conditions: HEK293 cells; pretreatment
Protocol: HEK293 cells were transiently cotransfected with the N-terminal YFP-tagged BmOR3 together with N-terminal Rluc-fused β-arrestin-1, β-arrestin-2, or BmArr plasmids. Twenty-four hours after transfection, cells were distributed into a 96-well microplate and incubated for additional 24 h. The cells were stimulated with varying concentrations of bombykal for 10 min, and the BRET signal between YFP (530 nm) and Rluc (485 nm) was measured after the addition of the Rluc substrate coelenterazine h (5 μM) using a Mithras LB 940 multimode reader (Berthold Technologies). The BRET signal was calculated as the ratio of emission of YFP to Rluc.

BmOR3 and BmOrco = experiment: CalfluxVTN Ca2+ assay (BRET-based calcium sensor); assay type: cell-based, Bombyx mori; conditions: HEK293 cells; pretreatment 100 ng/ml
Protocol: HEK293 cells were cotransfected with plasmids encoding WT BmOR3 and BmOrco or their mutants, or AT1R together with CalfluxVTN probe. 24 h after transfection, cells were redistributed into 96-well flat-bottomed microplates. After another 24 h, cells were incubated with conventional buffer with Ca^2+ (135 mM NaCl, 5 mM KCl, 1 mM CaCl2, 5 mM D-glucose, 10 mM Hepes; pH = 7.4) or with Ca^2+-free buffer (135 mM NaCl, 5 mM KCl, 1 mM EGTA, 5 mM D-glucose, 10 mM Hepes; pH = 7.4), and stimulated with different concentrations of Bombykal (or AngII). The BRET ratio between Venus and Nluc was measured before (baseline) and after the addition of the Nluc substrate furimazine (5 μM) using a Mithras LB 940 multimode reader (Berthold Technologies). The BRET signal was calculated as ratio of emission of Venus (530 nm) to Nluc (460 nm). The baseline value was subtracted from the bombykal-stimulated BRET signal to obtain the ΔBRET value.

BmOR3 [2] = biological target: T2, BmOR3; experiment: Arrestin-kinase BRET assay; assay type: cell-based; conditions: HEK293 cells transfected with BmOR3; pretreatment
Protocol: Twenty-four hours after transfection, cells were distributed into a 96-well microplate. After another 24 h, the cells were stimulated with 1 μM bombykal (for BmOR3-transfected cells) or 1 μM AngII for 10 min (for AT1R-transfected cells). BRET between RLuc and YFP was measured using a Mithras LB 940 multimode reader after the addition of the RLuc substrate coelenterazine h (5 μM). The BRET signal was calculated as the ratio of emission of YFP (530 nm) to RLuc (485 nm).

YFP-BmOR3 [3] = biological target: T3, YFP-BmOR3 (Bombyx mori, UniProt Q5FBE0 1-439); experiment: FRET or BRET; arrestin recruitment BRET in living HEK293 cells; YFP-BmOR3 (WT or mutant) with Rluc-fused arrestin; bombykal for 10 min; pertussis toxin without effect; enhanced by BmOrco coexpression; conditions: partners not purified
T3 construct: BmOR3, pheromone (bombykal) receptor of Bombyx mori; also called N-terminal YFP-tagged BmOR3; YFP-WT-BmOR3; source: HEK293, transfected, in living cells; not shown: YFP, N-terminal, kept
T3 sequence (looked up): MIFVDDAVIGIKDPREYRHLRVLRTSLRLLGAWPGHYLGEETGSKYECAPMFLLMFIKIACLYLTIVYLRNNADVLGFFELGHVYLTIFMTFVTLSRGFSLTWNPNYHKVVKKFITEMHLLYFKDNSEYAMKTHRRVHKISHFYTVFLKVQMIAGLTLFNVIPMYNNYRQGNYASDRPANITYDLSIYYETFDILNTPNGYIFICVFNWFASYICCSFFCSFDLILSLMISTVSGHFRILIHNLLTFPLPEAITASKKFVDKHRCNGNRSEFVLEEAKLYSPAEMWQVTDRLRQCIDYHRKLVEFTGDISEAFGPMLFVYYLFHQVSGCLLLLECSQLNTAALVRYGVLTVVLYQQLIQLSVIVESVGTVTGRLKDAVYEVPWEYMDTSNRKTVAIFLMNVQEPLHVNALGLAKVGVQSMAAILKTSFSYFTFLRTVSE

YFP-BmOR3 [4] = biological target: T3, YFP-BmOR3; experiment: FRET or BRET; G protein recruitment BRET in living HEK293 cells; YFP-BmOR3 with Gi-Rluc; increasing bombykal for 2 min; net BRET after subtracting cells with Gi-Rluc only; net BRET also without bombykal; BmOrco coexpression without significant effect; conditions: partners not purified
[5] = bombykal-stimulated, parent: est. 0.012
[6] = HEK293 cells, bombykal, parent: est. 0.612
[7] = HEK293 cells, vehicle, parent: est. 0.592

Molecule: YFP-BmOR3 (from UniProt Q5FBE0) T25A
response (Rluc-BmArr; [5]): 0.0082 ΔBRET

Molecule: YFP-BmOR3 (from UniProt Q5FBE0) W33A
response (Rluc-BmArr; [6]): 0.605 BRET Ratio
response (Rluc-BmArr; [7]): 0.595 BRET Ratio

Molecule: YFP-BmOR3 (from UniProt Q5FBE0) W209A
response (Rluc-BmArr; [6]): 0.604 BRET Ratio
response (Rluc-BmArr; [7]): 0.592 BRET Ratio

Molecule: YFP-BmOR3 (from UniProt Q5FBE0) W383A
response (Rluc-BmArr; [6]): 0.603 BRET Ratio
response (Rluc-BmArr; [7]): 0.59 BRET Ratio

Molecule: pertussis toxin [PTX]
effect of pretreatment on bombykal-induced BmOR3–BmOrco complex formation (BmOR3–BmOrco): no significant effects
effect of pretreatment on bombykal-induced β-arrestin recruitment to BmOR3 (BmOR3 [1]): not affected
effect of pretreatment on bombykal-induced complex-regulated calcium influx (BmOR3 and BmOrco): no significant effects
effect of pretreatment on bombykal-induced association of β-arrestin with ERK, SRC, and AKT (BmOR3 [2]): not significantly affected

B1: N-terminal Rluc-fused β-arrestin-1 (natural protein, UniProt P49407 1-418, looked up)
chain: MGDKGTRVFKKASPNGKLTVYLGKRDFVDHIDLVDPVDGVVLVDPEYLKERRVYVTLTCAFRYGREDLDVLGLTFRKDLFVANVQSFPPAPEDKKPLTRLQERLIKKLGEHAYPFTFEIPPNLPCSVTLQPGPEDTGKACGVDYEVKAFCAENLEEKIHKRNSVRLVIRKVQYAPERPGPQPTAETTRQFLMSDKPLHLEASLDKEIYYHGEPISVNVHVTNNTNKTVKKIKISVRQYADICLFNTAQYKCPVAMEEADDTVAPSSTFCKVYTLTPFLANNREKRGLALDGKLKHEDTNLASSTLLREGANREILGIIVSYKVKVKLVVSRGGLLGDLASSDVAVELPFTLMHPKPKEEPPHREVPENETPVDTNLIELDTNDDDIVFEDFARQRLKGMKDDKEEEEDGTGSPQLNNR
notes: β-arrestin-1; also called βarr1; source: HEK293, transfected, in living cells; not shown: Rluc, N-terminal, kept
EC50 of bombykal for the BRET increase (quantity not given) (YFP-BmOR3 [3]): 91.1 ± 1.61 nM

B2: Gi2-Rluc (natural protein, UniProt P04899 1-355, looked up)
chain: MGCTVSAEDKAAAERSKMIDKNLREDGEKAAREVKLLLLGAGESGKSTIVKQMKIIHEDGYSEEECRQYRAVVYSNTIQSIMAIVKAMGNLQIDFADPSRADDARQLFALSCTAEEQGVLPDDLSGVIRRLWADHGVQACFGRSREYQLNDSAAYYLNDLERIAQSDYIPTQQDVLRTRVKTTGIVETHFTFKDLHFKMFDVGGQRSERKKWIHCFEGVTAIIFCVALSAYDLVLAEDEEMNRMHESMKLFDSICNNKWFTDTSIILFLNKKDLFEEKITHSPLTICFPEYTGANKYDEAASYIQSKFEDLNKRKDTKEIYTHFTCATDTKNVQFVFDAVTDVIIKNNLKDCGLF
notes: G protein alpha subunit Gi2 (Gαi2); also called Gαi-Rluc; Rluc-tagged Gi protein; source: HEK293, transfected, in living cells
EC50 of bombykal for the BRET increase (YFP-BmOR3 [4]): 22 ± 3.22 nM

Results, then the molecule that gave them:

response (Rluc-BmArr; [5]): 0.008 ΔBRET
Molecule: YFP-BmOR3 (from UniProt Q5FBE0) S26A

response (Rluc-BmArr; [5]): 0.0024 ΔBRET
Molecule: YFP-BmOR3 (from UniProt Q5FBE0) T25A; S26A; T42A

response (Rluc-BmArr; [5]): 0.0086 ΔBRET
Molecule: YFP-BmOR3 (from UniProt Q5FBE0) T42A

response (Rluc-BmOrco): 0.041 ΔBRET
Molecule: YFP-BmOR3 (from UniProt Q5FBE0) V394A; L398A

response (Rluc-BmArr; [6]): 0.605 BRET Ratio
response (Rluc-BmArr; [7]): 0.594 BRET Ratio
Molecule: YFP-BmOR3 (from UniProt Q5FBE0) W103A

response (Rluc-BmArr; [6]): 0.605 BRET Ratio
response (Rluc-BmArr; [7]): 0.593 BRET Ratio
Molecule: YFP-BmOR3 (from UniProt Q5FBE0) W286A

EC50 of bombykal for the BRET increase (YFP-BmOR3 [4]): 10.6 ± 2.06 nM
B3: Gi3-Rluc (natural protein, UniProt P08754 1-354, looked up)
chain: MGCTLSAEDKAAVERSKMIDRNLREDGEKAAKEVKLLLLGAGESGKSTIVKQMKIIHEDGYSEDECKQYKVVVYSNTIQSIIAIIRAMGRLKIDFGEAARADDARQLFVLAGSAEEGVMTPELAGVIKRLWRDGGVQACFSRSREYQLNDSASYYLNDLDRISQSNYIPTQQDVLRTRVKTTGIVETHFTFKDLYFKMFDVGGQRSERKKWIHCFEGVTAIIFCVALSDYDLVLAEDEEMNRMHESMKLFDSICNNKWFTETSIILFLNKKDLFEEKIKRSPLTICYPEYTGSNTYEEAAAYIQCQFEDLNRRKDTKEIYTHFTCATDTKNVQFVFDAVTDVIIKNNLKECGLY
notes: G protein alpha subunit Gi3 (Gαi3); also called Gαi-Rluc; Rluc-tagged Gi protein; source: HEK293, transfected, in living cells
